assay: soluble on expression in E. coli; label from the status in PepcDB or PDB records

| Sequence | soluble on expression in E. coli |
| --- | --- |
| MGSDKIHHHHHHMTIDLTPYLPSQGPKYLAIARALAEAIRQGELTPGTRLPPHRCLADALAVSVQTVSRAYAQAEKMGLVQARVGSGTWINTLDDSQEAEYLRSADLPTEGAPVDLSIAHPVCPPGHHLRFRETLREVADSAHPDAIDACRPIAGLAHQRERASHWLQETLGVPGTPDDRVLCNGAAHGVMLAIATLVQHGDVVLTEALTDHGLIALSRTLGLQLRGVAIDEQGVIPEALDAACRRYHPRAVCLTPTQHNPTGATMDADRRDAIAEVLARHGTWLIEDDTHALLEPPGLTPLTARLPRQSFHVTSLTKATVPGLRAGYLSVPRGQLHHTLPRLRATSWMATPLIFEIADRWLADGSVEALAEEQRQLLAERQQLTRSRLQGHVMASRPTGLHVWLALPRAWRAEELQQQALREGLAIATAQPFMVGQGAPPQRVRLSLGAENDLERFDQGLTILARLLGEAPPPMLQNV | not soluble |
| MSQWTTVCKLDDILPGTGVCALVEQQQIAVFRPRNDEQVYAISNIDPFAQASVLSRGIVAEHQDDLWVASPLKKQHFRLYDGFCLEDGAYSVAAYDTQVTNGNVQISIADSDVAVDNSQPLPLEHHHHHH | soluble |
| METRRDERIGRLAQALKKTDKLHLKDAAQLLGVSEMTVRRDLNADSTSVMLLGGYVVSDLKNNGVTNYFVSDQQTKHVREKQAIGTAAAYLVEANDTVFFDCGTTIPFIIDAIPDELLFTAICYSLNTFLALQEKKACRVILCGGEYHPDNAIFTPLNQRCELDNICPNKAFISAAGIELNAGATCFNFAELGMKQRAMATAQRIIIVADNSKFGQIKRACIGPMTLFDTVISDSAPSEPYLRYFSNNGIQLIHPGNLEHHHHHH | soluble |
| GIDPFTVRTRVSEGLVLAEPAKLMISTDGSASTADLTRATTTWNQQSNNLGASSKYVTSVLMDAGNTGVITITYVADQVGLPTAGNTLILSPYINDGNTRTALATAVAAGTRGTIDWACTSASNATATAQGFTGMAAGSVPQEFAPAQCR | soluble |
| MSEWRGFNRKGNTMKIRPGRHNAPDFPHGAAVTIGNFDGVHLGHKHILQKLRLEADARGLPVVAVVFEPQPKEFFALRTGKTPPCRISPLRTKLELLEGTGCVDAAWVLRFDRNFSEISAQAFIDRLLRQTLNTRYLLVGDDFRFGAGREGCFELLAQQPDMQTERTPSVIVEDIRTSSTAVRQALSDGNLAYAKKLLGHDYVLGGRVVHGRKLGRTLNAPTANIRLPGHRYALGGVFVVEADGAFGTRRGVASFGFNPTVDGGCSQKLEVHLFDFQGDLYGQRLNVRFLHKLRDEEKFDGMEELKRRIEADMEAAKCW | not soluble |
| SEEASTGTMVLLWAGGFQKVGGEQVSPLTGEVTRHRDRNIPYNLPVPSHPSNWVPLAAEVGPDSCDCGGPAPGLLLLLTRPHDPQFTVPSGWGRQLCPGHALLDEPLLPETGGHPVCERVGHPAPSGPPDLLGLAAGHVLCRVRHDTPVRIPGTGSGCVCTHPAVQWQADLLPHLTLWPNPGQGTVRTSVRNSGHTEEQQVGLS | soluble |
| MVAIVDVGITKFGKRKENIFDLVKEVTEKLLKYDIDYVIVSNSYSGEFNQTSGLSSLITTYLNLDYVPSLRVDNTSGSGGSAILVAKSLLESKEANTVLVVGVEKMSEKKTREVTKIISSLLPFEERIASLPSLASISAIEYMRKFNAPRESIAQVAVKNHYNGSLNPFAHIQKRVTLEEVLNSPVISEPLRLYEYTPISDGAAAVVMVRNEDALSYTSKPVYIKGIGSSNYTAYVSEKEDFVTLPAVVEASRKAFKKAKVERIDFAELHDMATILEIIQSEDIGLFKKGEGWKAVMEGLTSLDGEIPINPSGGLNSKGHPIGASGVAQAVEAFSQIRNEAGNRQVKNARVGLSLSMAGYGNSATVIIYGDEP | soluble |
| EGVAVMLFYSVGELFQDKAIDKAKRNISALLDVRPEKAVVVRSNEIVTVDPRSVLINEIIEIKAGERVPLDGVMLDEVAAFNTAALTGESVPRDISRGEEVLAGMIVTDKVIRMKVTKPFDKSALARILELVE | not soluble |
| MERITVTLGERSYPITIAAGLFNEPASFLPLKSGDQVMLVTNETLAPLYLDKVRGVLERAGVNVDSVILPDGEQYKSLTVLDTVFTALLKKPHGRDTTLVALGGGVIGDLTGFAAASYQRGVRFIQVPTTLLSQVDSSVGGKTAVNHPLGKNMIGAFYQPASVVVDLDCLKTLPARELTSGLAEVIKYGIILDADFFTWLEGNLDALLRLDGPAMAYCIRRCCELKAEVVAADEREAGLRALLNLGHTFGHAIEAEMGYGNWLHGEAVAAGIVMAARASERLGQFSSADTQRIIALLERAGLPVNGPCEMSAQDYLPHMLRDKKVLAGELRLVLPLAIGKSEVRGGVSHEVVLSAIADCQQA | not soluble |
| MQVIPLKPLDNKTLEEIGLDWHTNDDMSSYIADEMVVVSQKEADAYYDACNELYDMFVETAEEAIQNDRFFELDIPNALIPMIKQSFEEEVHWHIYGRFDLAGGLDGKPIKLLEFNADTPTMLYETAVIQWALLKANGYDENKQFNNLYEALGENFKRMVTLGEDTSRFEEMYEGWKILFSSVRGNIEEERTMRFLQDAAQSVGFETDFSYIDEVEFNIEEGVFKNGLNYEFLFKLIPWENIAIDEPELALLMQGMMENKNTIFLNPAYTILFQSKRFLKLLWDRYPNHPLLLETSYEPLANKKQIKKVAFGREGANSEIFEASMQSLLKTDGVYSNHKPVYQEFYELNSHNGLYYQPNVFFAYESCALGFRKGGLILDNFSKFVSHRLQ | not soluble |
| MGSDKIHHHHHHMVIQMKFFNREKEIHEILSILEGEPNIIYFIYGPLNSGKTALIKHIIENKLSDDYKVFYINFRTYLISEKREFIEAIFTTKKDDFFEKIKDKSEVLNLITKGAKILTGIPIPEVEFDKLFEEKINDAFQYLNSILLEVKKSGKQPVLILDELQMIKDVVLNWQKYLLKELFQFLVSLTKEQHLCHVFCLSSDSLFIEYVYSAGELEGRAKYLLVDDFDKETALKFMDFLAKEILNKKLSDEDKELIYNYVGGKPVYIYSVIDEMRYRKLEDILNLMLKEETQKLKYFLKELDYIKPKVELKDEIIEIKKDDIINALKLFKENYEVSDDDIPEPVYIYLVKKNILFLNPIEGILKPQSFLIWNAIKKLLNGH | not soluble |
| MGSDKIHHHHHHMIDHLIATDIGGRGSEKLYILYKSKDPDYFSKSLDLLIKSDEVLIVSDFPIPPTMTPETDGPPGALALALGLAELGKKATILTQEIVKEGLRDFYPRITTKFPNIRKFSCLVSIETPGRNFKGEYLSFSGLKISVRPYDDLFLRALELGIPTIGIGDGGNEIGMGNLGLNDERFSVVRVNELIIAGVSNWGAYGLVAGLSMRVGQNLLRDYNEEDVVKSLVDVGLIDGITKKREPTVDGLPLSLHGKILELLIEIVNIKTP | not soluble |
| GMENIEYVFEDVVRIYDTDAQGIAHYAAYYRFFTNTIEKFIKEKVGIPYPIVNENLWFVIAESHAIYHRPVKLGDKLTVLLNPKILSNKTIKFEFKVLKDGELTTEGYVIQIAINPKIWKSTEMPKEIMDKLSIK | soluble |
| MELVKTIQIGDDIYPPIPDLFGIQENQEFNLYKSTDGTLVLSPSDSKLSADHQSISSDEQMTTAVEQARLDEIATSVLSRHLDAFKELTE | not soluble |
| MKSVLITFDQAYYERIMALLDRLNCRGFTYLEKVQGRGSKTGDPHFGSHAWPSMCSAILTVVDDNKVDPLLDTLHKMDLQTEQLGLRAFVWNIERTI | not soluble |
| MHHHHHHMGLNTAIATRVNGTPPPEVPIADIELGSLDFWALDDDVRDGAFATLRREAPISFWPTIELPGFVAGNGHWALTKYDDVFYASRHPDIFSSYPNITINDQTPELAEYFGSMIVLDDPRHQRLRSIVSRAFTPKVVARIEAAVRDRAHRLVSSMIANNPDRQADLVSELAGPLPLQIICDMMGIPKADHQRIFHWTNVILGFGDPDLATDFDEFMQVSADIGAYATALAEDRRVNHHDDLTSSLVEAEVDGERLSSREIASFFILLVVAGNETTRNAITHGVLALSRYPEQRDRWWSDFDGLAPTAVEEIVRWASPVVYMRRTLTQDIELRGTKMAAGDKVSLWYCSANRDESKFADPWTFDLARNPNPHLGFGGGGAHFCLGANLARREIRVAFDELRRQMPDVVATEEPARLLSQFIHGIKTLPVTWS | soluble |
| SFQRALPRQPVPSAQETVRKYLESVRPVLGDDAFDRATALANDFLRLHAPRLQLYLQLKSWCTSNYVSDWWEEFVYLRSRGSLINSTYYMMDFLYVTPTPLQAARAGNAVHTLLLYRHLLNRQEISPTLLMGMRPLCSAQYERMFNTTRIPGVEKDHLRHLQDSRHVAVFHRGRFFRVGTHSPNGLLSPRALEQQFQDILDDPSPACPLEEHLAALTAAPRSMWAQVRESVKTHAATALEAVEGAAFFVSLDSEPAGLTREDPAASLDAYAHALLAGRGHDRWFDKSFTLIVFSNGKLGLSVEHSWADCPVSGHLWEFTLATECFQLGYATDGHCKGHPDPTLPQPQRLQWDLPEQIQPSISLALRGAKTLSGNIDCHVFPFSHFGKSFIKCCHVSSDSFIQLVLQLAHFRDRGQFCLTYESAMTRLFLEGRTETVRSCTREACQFVRAMDNKETDQHCLALFRVAVDKHQALLKAAMSGQGIDRHLFALYIMSRLLHMQSPFLTQVQSQQWLLSTSQVPVQQTHLIDVHNYPDYVSSGGGFGPAHDHGYGISYIFMGENAITFHISSKKSSTETDSHRLGQHIENALLDVASLFRVGQHFKRQFRGENSDYRYNFLSCKTVDPNTPTSSTNL | soluble |
| MGSDKIHHHHHHMIGIEQYQKIQEYKELGLAQTKTAKALGITYSSVSKYWNMSEEDYVREAEQEKYHMDNYRQYILEQLKICPQIRDTNVYLKLMEAFPDLQVKRATFYRYMKALREQHGYQHTSKRKISPREVSPPGYEAQADFGQYKLKDMYGRIVRVYFFCMVLSYSRMKFVCFSPDPFTTKTGIKVHNYAFQCVWQV | not soluble |
| MKPSHQQQKQASAAKDEKKDIIPLSAEKADGAEGWLNNSTILYTASNPTKTELFPYRIFTGKAKKLYQTDGQIVDVQINAREQMILLQITHSQKTAVVLLNAEGETLYEKDYETYELEAAWNQYDPYQMMVTEFNENWDFHTYQVNAKKDESFLSPVQVPFIHWTSKNTFDYVKEGRDDKTGPLYTFDTASKTEQKLEDNVLFFDSFHQMSFTVKSASGGKGTYQFKTPQSTSPVTAKWPLQAKYTSLAPMEYDYDEAGSLFYTFKQSGDAYKLAAINVASGETKDLVSLREMEPIQISPNGKYALYGFHFEQIILLKSHETKQLIIDQKEMELEHHHHHH | soluble |
| NSYVFDLPHNQHKLTKFAHKGILFNSVHLERDGTLKFPQLKQSKQKPAVSSELKTAIKRIKAGYKKVKPNYKKRQKQQIAELFAKRKQRRSWKNF | not soluble |
| SNATIYRMVDLPVIQPRLCTHARWPAPVYGLLVDPSLPSNPQWQNGRVHVDGTLLGTTPISGSWVSCFAAEAAYEFQSGTGEVATFTLIEQDGSAYVPGDRAAPLGYPDFSGQLEIEVQTETTKTGDKLKVTTFEMILGPTTNADQAPYQGRVFASVTAAASLDLVDGRVRAVPRSIYGFQDTIPEYNDGLLVPLAPPIGPFLPGEVLLRFRTYMRQIDTADAAAEAIDCALPQEFVSWFASNAFTVQSEALLLRYRNTLTGQLLFECKLYNEGYIALSYSGSGPLTFPTDGIFEVVSWVPRLYQLASVGSLATGRMLKQ | soluble |

Source: the DeepSol protein solubility set
